In patent US10119137B2, “Methods used to treat cancer” (THE TRANSLATIONAL GENOMICS RESEARCH INSTITUTE, priority 2015, dated 2018):

Legend:
Format in all cases: cell-based, Human
U87 glioma cells = assay: Histone H2A.X phosphorylation immunoblot after TMZ; conditions: U87, TMZ 500 μM, control or SGEF depleted conditions
Procedure: (§1) For immunoblotting, cells were lysed in 2×SDS sample buffer (0.25 M Tris-HCl, pH 6.8, 10% SDS, 25% glycerol) containing 10 μg/mL aprotinin, 10 μg/mL leupeptin, 20 mM NaF, 2 mM sodium orthovanadate, and 1 mM phenylmethylsulfonyl fluoride. Protein concentrations were determined using the BCA assay (Pierce) with bovine serum albumin as a standard. Thirty micrograms of total protein were loaded per lane and separated by SDS PAGE. After 4° C. transfer, the nitrocellulose (Invitrogen) was blocked with either 5% nonfat milk or 5% BSA in Tris-buffered saline, pH 8.0, containing 0.1% Tween 20 (TBST) prior to addition of primary antibodies and followed with peroxidase-conjugated anti-mouse IgG or anti-rabbit IgG. Protein was detected using SuperSignal West Dura Chemiluminescent Substrate (Thermo Scientific) with a UVP BioSpectrum 500 Imaging System (Upland, Calif.). Densitometry was calculated via Image J software.

[1] = system: T98G and U118 glioma cells; assay: TWEAK stimulation: SGEF mRNA (qPCR) and protein (western blot) expression; conditions: TWEAK 100 ng/mL, increase apparent within two hours
Procedure: Human astrocytoma cell lines U87, U118, and T98G (American Type Culture Collection), as well as primary glioblastoma xenograft cells (GBM & GBM TMZ-R lines) were maintained in DMEM (Gibco, USA) supplemented with 10% heat-inactivated fetal bovine serum (FBS; Gibco, USA) at 37° C. with 5% CO2. For all assays with TWEAK treatment, cells were cultured in reduced serum (0.5% fetal bovine serum) for 16 h before stimulation with recombinant TWEAK at 100 ng/mL in DMEM+0.1% bovine serum albumin for the indicated times.
as §1, with “After 4° C. transfer, the nitrocellulose (Invitrogen) was blocked with either 5% nonfat milk or 5% BSA in Tris-buffered saline, pH 8.0, containing 0.1% Tween 20 (TBST) prior to addition of primary antibodies and followed with peroxidase-conjugated anti-mouse IgG or anti-rabbit IgG.” left out, “software. […]” for “software.”

[2] = system: SGEF promoter NF-κB p65 consensus sequence; assay: Biotinylated electrophoretic mobility shift assay, NF-κB binding site of the SGEF promoter; conditions: T98G nuclear proteins 2 hours after TWEAK 100 ng/mL
Procedure: T98G glioma cells were plated at a density of 3×10^6 in 100 mm^2 tissue culture dishes in normal growth medium. After 12 h, cells were cultured under reduced serum (0.5% FBS) for an additional 16 h before TWEAK (100 ng/mL) addition for 2 h. Isolation of cell nuclear protein was carried out using the NE-PER kit (Pierce) according to the protocol of the manufacturer. Protein-DNA complexes were detected using biotin end-labeled double-stranded DNA 23-mer probes containing the NF-κB binding sites within the SGEF promoter (NF-κB-SGEF wt target sequence: 5′-GTCTAGGAGGCAAATCCCAGAAA-3′ (SEQ ID NO:5); NF-κB-SGEF mt target sequence: 5′-GTCTAGGAGCCAGATCGCAGAAA-3′(SEQ ID NO:6)). The binding reactions were done using the LightShift kit (Pierce) according to the protocol of the manufacturer. Where indicated, 200-fold molar excess of unlabeled NF-κB-SGEF wt oligonucleotides or anti-p65 antibody was included. The reaction products were resolved by gel electrophoresis and detected by chemiluminescence according to the protocol of the manufacturer (Pierce).

Molecule	time to phosphorylation of H2A.X after TMZ treatment (U87 glioma cells) [min]	SGEF mRNA levels [1]	SGEF protein levels [1]	NF-κB binding to the SGEF promoter region [2]
Cn1nnc2c(C(N)=O)ncn2c1=O [TMZ, temozolomide]	≤ 30	–	–	–
TWEAK: Human recombinant TWEAK, tumor necrosis factor-like weak inducer of apoptosis, cytokine ligand of Fn14 (protein) SAPKGRKTRARRAIAAHYEVHPRPGQDGAQAGVDGTVSGWEEARINSSSPLRYNRQIGEFIVTRAGLYYLYCQVHFDEGKAVYLKLDLLVDGVLALRCLEEFSATAASSLGPQLRLCQVSGLLALRPGSSLRIRTLPWAHLKAAPFLTYFGLFQVH	–	increased	increased	NF-κB binds to the SGEF promoter region
